Laboratory results reported in the supplement of paper PMC10567573.

B1: TLE6 (parent)
chain: FWHDTLTEQLWRIFAGVHDEKAKP
B2: TRIM15 (parent)
chain: QSSGKILLCPLCQEEEQAETPMAP

Variants of: B1
Assay: protein stability index of a GFP-peptide fusion (GPS, HEK-293T) (PSI 1-6); higher = more stable
Conditions: c terminus: a fixed tail appended
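Further: lentivirally expressed fusions sorted by FACS into six bins by GFP to DsRed ratio, PSI derived from sequencing read proportions per bin multiplied by bin number.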

Protein stability index, by site and new letter:
D4: M 2.44, R 1.58, H 1.8, K 1.76, N 1.71, V 2.09, C 1.91, L 1.74, W 1.29, E 1.99, P 2.31
W2: I 2.26, S 1.62, D 2.61, Q 2.87, K 2.11, F 1.9, R 2.46
H18: Q 1.5, I 2.92, W 1.36, L 2.67, S 2.72, N 2.09, M 2.48, C 2.24, T 2.13
T7: P 2.01, F 2.03, N 1.36, H 2.24, E 1.42, D 2.01, L 2.3, A 1.92, K 2.16, R 1.89, S 2.07
R12: P 2.43, H 2.11, N 2.2, Q 1.94, M 1.52, F 2.21
K23: H 2.5, Q 1.83, E 1.65, C 2.13, Y 1.92, I 1.64, P 1.78, V 2.71, L 1.89, D 1.49, T 2.3, M 2.8
W11: G 2.46, F 1.59, E 2.85, N 2.19, L 1.85, T 2.35, I 1.79, S 2.18, D 2.82, V 1.56
F1: I 1.95, Q 2.54, K 2.44, L 1.93, D 2.17, W 1.82, H 1.96, T 2.01
Q9: A 3.78, I 2.55, T 2.38, D 1.97, L 1.79, C 3.67, S 2.04, F 1.97, W 2.79
H3: R 1.88, I 2.7, W 3.07, T 2.75, D 2.16, E 2.47, C 1.95, F 1.96
G16: P 3.4, V 2.85, W 2.23, I 1.89, H 2.26, N 2.07, S 1.82, Y 2.51
E20: P 1.87, K 1.87, W 2.86, V 1.9, M 2.88, D 2.62, C 1.79, G 1.91, N 2.19, A 2.37, S 2.41
F14: Q 1.52, M 2.19, E 2.19, A 1.65
K21: Q 1.81, H 1.69, R 1.31, L 2.2, A 1.69, V 3.44, I 3.25
D19: Y 2.97, K 1.7, W 3.85, G 1.72, C 2.06, R 2.35, A 2.33
P24: F 2.44, Q 1.9, I 3.17, D 1.65, W 1.92
T5: C 1.34, A 1.25, Y 2.35, G 1.46
I13: L 1.69, K 2.53, M 2.13, E 2.99, F 1.96, Q 2.54, R 2.02, Y 2.1, P 2.85
A15: G 2.02, S 2.43, T 1.89, H 1.86, D 1.86, L 2.41, N 1.68, P 2.23, M 1.39
V17: H 2.82, M 1.93, Q 2.06, T 1.33, D 1.92, C 1.47, A 2.81, E 1.83
L10: F 1.68, A 2.17, M 1.88, E 2.41, H 2.54, S 2.61
A22: Q 1.53, T 2.15, H 1.83, N 1.94, K 1.64, C 1.81, W 1.38, R 1.84, V 1.8, L 1.58
E8: F 2.17, A 1.66, Y 2.53, L 2.23, Q 2.64, K 2.04, W 2.35, G 1.69, C 1.62
L6: V 1.75, M 1.85, I 2.36, S 2.66, F 1.58, R 2.53

Variants of: B2
Assay: as above
Conditions: c terminus: a fixed tail appended

Protein stability index, by site and new letter:
L7: G 3.9, T 3.31, M 3.51, W 3.29, V 3.48, F 3.47, I 3.4, K 4.51, S 3.39, C 3.77, A 3.65, P 4.42, D 4.35, Y 3.15, N 4.21, H 3.62, Q 3.94
K5: D 3.72, C 3.54, E 4.56, I 2.17, L 2.86, W 2.45, N 3.46, S 3.44, M 2.41, F 2.1, H 3.17, T 3.06, V 2.85, R 3.22, G 3.77, Y 2.36, A 3.27, P 3.65, Q 3.98
S3: M 3.24, H 2.99, G 3.34, Q 3.63, F 3, N 3.62, C 2.33, K 3.21, R 3.73, A 3.62, L 3.3, V 3.57, D 3.07, E 3.79, Y 2.82, T 3.58, I 3.31, P 3.23, W 2.16
L8: K 3.83, H 3.96, D 4.91, C 3.46, G 4.08, E 5.11, R 3.34, M 3.79, S 3.99, P 4.34, W 2.93, A 4.32, Q 4.23, T 3.48, N 4.45
S2: T 3.34, A 3.52, D 3.78, Y 2.85, K 3.47, M 2.79, I 2.62, E 4, N 2.86, F 2.18, L 2.67, W 2.38, C 2.88, R 3.28, V 2.56, H 3.32
G4: W 2.21, L 2.93, V 2.94, E 3.72, Q 3.29, C 4.14, H 2.96, I 3.34, S 2.86, N 2.76, A 3.07, P 3.24, K 4.13, M 3.3, Y 3.4, R 3.72, F 2.49, D 4.24, T 3.66
Q1: N 3.06, L 3.13, G 3.8, P 2.73, M 2.63, S 3.28, C 2.72, W 3.08, D 3.99, I 3.27, Y 1.58, V 2.87, K 3.46, E 3.98, R 3.35, A 3.2, F 1.4, T 3.16
I6: T 3.89, Y 4.04, C 3.94, P 4.11, E 3.62, H 3.15, L 3.79, G 3.53, A 4.26, Q 3.37, K 4.23, F 3.76, R 3.41, D 4.77, M 3.72, S 3.39, N 4.13
